Laboratory results as given in patent US20090318342A1, “Compounds” (IMPERIAL INNOVATIONS LIMITED, priority 2005, published 2009).
Like-named read-outs stand apart in the source and are kept apart here. Blank lines part the entries; values can stand above or below the molecule they belong to.

Legend:
[1] = target: soluble form of TACE (TACE R651) (Homo sapiens, UniProt P78536); assay: Enzyme inhibition kinetic study, TACE; format: biochemical
Description: FIG. 2. Inhibition of MMP and TACE by N-TIMP-3 and its mutants. A. Inhibition of MMP-14(CD) by wild-type and mutated N-TIMP-3. Open circles, wild-type N-TIMP-3; closed circles, T2G; and open squares, -1A. B. Comparison of the inhibition of TACE by wild-type N-TIMP-3, N-TIMP-1 and TAPI-2. The inhibitors were incubated with 0.5 nM TACE for 3 hr at room temperature, and the residual enzyme activity was measured with 10 μM Substrate III (R&D Systems). […] Open circles, N-TIMP-3; closed circles, TAPI-2; and open squares, N-TIMP-1. C. Inhibition of TACE (0.5 nM) by wild-type and mutated N-TIMP-3. Open circles, wild-type inhibitor; closed circles, T2G; and open squares, -1A.
(§1) Enzyme inhibition kinetic studies—Inhibition kinetic studies for MMPs and TACE were carried out as described previously (19, 27) with modifications. Purified N-TIMP-3 and mutants were dialyzed against 20 mM Tris-HCl (pH 7.0), 50 mM NaCl containing 20% glycerol, centrifuged at 14,000 rpm for 10 min to remove any precipitate, and protein concentration was re-measured before conducting inhibition assays. Since NaCl inhibits the activity of the TACE ectodomain in vitro (28), we adjusted the final concentration of NaCl to 1 mM in all assays with TACE. Equal volumes (10% of total assay volume) of diluted solutions of N-TIMP-3 and mutants were added to TACE assays, resulting in a final pH of 8.8.
(§2) where v is the experimentally determined reaction velocity, v0 is the uninhibited activity, E is enzyme concentration, I is inhibitor concentration, K is the apparent inhibition constant (Ki^(app)) and h is the Hill coefficient.
The inhibitory activities of the mutants were also compared with that of wild-type N-TIMP-3 against a soluble form of TACE in which the transmembrane and C-terminal cytoplasmic domains are deleted (TACE R651; (28)). […] The inhibition curve of TACE by wild-type N-TIMP-3 is sigmoid, in striking contrast with the inhibition by TAPI-2 and with the inhibition of MMPs by N-TIMP-3 and N-TIMP-1 (FIGS. 2A, 2B; (31)). Sigmoid inhibition curves were also obtained for TACE with the T2G and -1A mutants of N-TIMP-3 (FIG. 2C).

gelatinase A (MMP-2) = target: T1, gelatinase A (MMP-2) (Homo sapiens, UniProt P08253); assay: Enzyme inhibition kinetic study, MMP-2; format: biochemical; settings: for Ki: read-out: Ki(app) MMP-2
T1 sequence (P08253 110-660): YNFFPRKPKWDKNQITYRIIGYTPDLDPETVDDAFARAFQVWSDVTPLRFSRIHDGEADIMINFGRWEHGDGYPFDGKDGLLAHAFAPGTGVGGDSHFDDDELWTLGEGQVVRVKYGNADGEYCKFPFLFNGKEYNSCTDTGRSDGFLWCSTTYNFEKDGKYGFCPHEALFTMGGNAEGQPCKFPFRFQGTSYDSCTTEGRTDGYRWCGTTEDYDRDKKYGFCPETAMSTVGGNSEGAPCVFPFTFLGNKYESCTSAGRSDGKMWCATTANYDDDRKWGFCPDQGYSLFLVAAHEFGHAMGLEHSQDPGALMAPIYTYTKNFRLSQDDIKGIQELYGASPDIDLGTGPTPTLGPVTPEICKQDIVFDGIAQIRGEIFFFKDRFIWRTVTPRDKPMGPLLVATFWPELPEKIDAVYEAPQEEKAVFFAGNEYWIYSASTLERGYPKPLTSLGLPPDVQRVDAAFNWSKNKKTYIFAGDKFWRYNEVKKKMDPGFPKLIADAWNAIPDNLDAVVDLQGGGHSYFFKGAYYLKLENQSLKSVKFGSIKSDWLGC
Description: as §1
(Eq. 1) Tight binding inhibition:
as §2
Inhibitory properties of mutants with purified metalloproteinases—The inhibitory activities of wild-type N-TIMP-3 and the two mutants were determined with MMPs representing four different sub-groups: full-length collagenase 1 (MMP-1), gelatinase A (MMP-2), and the catalytic domains of stromelysin 1 (MMP-3(ΔC)) and membrane-type 1 MMP (MMP-14). As previously reported for the corresponding mutants of N-TIMP-1 and TIMP-2 (17, 18), both mutations in N-TIMP-3 reduced the inhibitory activity towards the four MMPs by 2 to 3 orders of magnitude (Table I). FIG. 2A highlights the difference in inhibition of MMP-14(CD) by wild-type and mutated N-TIMP-3.
Ki(app) determinations for MMP-1, MMP-2 and MMP-3 were performed as set out in Example 1.

[2] = Table II, 0.5 nM TACE, pH 9.0, 1 mM NaCl, fit with equation 3
[3] = Table II, 0.5 nM TACE, pH 9.0, 1 mM NaCl, fit with equation 3, read-out: Ki(app) TACE

soluble form of TACE (TACE R651), sequence (P78536 215-651): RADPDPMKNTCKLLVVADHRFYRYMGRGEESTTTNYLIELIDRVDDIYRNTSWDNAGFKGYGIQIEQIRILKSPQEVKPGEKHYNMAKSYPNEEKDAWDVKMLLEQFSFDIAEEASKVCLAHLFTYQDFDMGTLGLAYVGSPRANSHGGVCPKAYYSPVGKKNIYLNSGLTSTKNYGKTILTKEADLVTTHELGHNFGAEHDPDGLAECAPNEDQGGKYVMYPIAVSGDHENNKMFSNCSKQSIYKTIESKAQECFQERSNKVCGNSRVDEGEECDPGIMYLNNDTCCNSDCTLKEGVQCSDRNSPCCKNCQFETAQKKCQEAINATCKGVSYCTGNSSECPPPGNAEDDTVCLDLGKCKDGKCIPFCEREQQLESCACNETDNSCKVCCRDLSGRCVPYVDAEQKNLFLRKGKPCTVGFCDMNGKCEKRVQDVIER

Inhibition of TACE activity (in words) ([1]; FIG. 2B, 0.5 nM TACE, pH 9.0, 1 mM NaCl): effectively inhibited
h (Hill coefficient) for TACE inhibition [1, 2]: 3.59 ± 0.16
Ki [1, 3]: 13.7 ± 0.2 nM
Ki ([1]; pH 7.5, sigmoid inhibition curves, read-out: Ki against TACE at pH 7.5): 26 ± 3 nM
Ki (gelatinase A (MMP-2); Table 3): 5.1 ± 1 nM
B1: N-TIMP-3: N-terminal inhibitory domain of TIMP-3 (residues 1 to 121), C-terminally His-tagged, wild-type (protein)
chain: CTCSPSHPQDAFCNSDIVIRAKVVGKKLVKEGPFGTLVYTIKQMKMYRGFTKMPHVQYIHTEASESLCGLKLEVNKYQYLLTGRVYDGKMYTGLCNFVERWDQLTLSQRKGLNYRYHLGCN

Inhibition of TACE activity ([1]; 100 nM): 80-90%
Inhibition of MMP-2 (gelatinase A (MMP-2); 100 nM): no inhibition
B2: (-2A)N-TIMP-3: N-TIMP-3 mutant with two alanine residues on the N-terminal side of Cysteine1 of the TIMP-3 sequence (protein)
chain: AACTCSPSHPQDAFCNSDIVIRAKVVGKKLVKEGPFGTLVYTIKQMKMYRGFTKMPHVQYIHTEASESLCGLKLEVNKYQYLLTGRVYDGKMYTGLCNFVERWDQLTLSQRKGLNYRYHLGCN

h (Hill coefficient) for TACE inhibition [1, 2]: 1.9 ± 0.22
Ki [1, 3]: 33.9 ± 2.8 nM
Ki (gelatinase A (MMP-2); Table 3): > 1000 nM
Ki (gelatinase A (MMP-2); Table I, enzyme 1 nM, pH 7.5): 614 ± 32 nM
B3: -1A: N-TIMP-3 mutant with the addition of an N-terminal alanine extension (-1A) (protein)
chain: ACTCSPSHPQDAFCNSDIVIRAKVVGKKLVKEGPFGTLVYTIKQMKMYRGFTKMPHVQYIHTEASESLCGLKLEVNKYQYLLTGRVYDGKMYTGLCNFVERWDQLTLSQRKGLNYRYHLGCN
